Experimental data: the RNAGym collection of RNA variant scans (doi:10.1073/pnas.2313332121)

B1: TPR t1 (parent)
chain: GACCAAUCUGCCCUCAGAGCUCGAGAACAUCUUCGGAUGCAGAGGAGGCAGGCUUCGGUGGCGCGAUAGCGCCAACGUCCUCAACCUCCAAUGCAUCCCACCACAUGAUGAUGCCUGAAGAGCCUUGGUUUUUUG

Variants of: B1
Experiment: polymerase ribozyme fitness, log enrichment relative to wild type (log ratio); higher = more active; in vitro selection for triplet polymerase activity
In short: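 After PCR construction and transcription, each subunit's mutant library from a heterodimeric triplet polymerase ribozyme was annealed with a biotinylated primer, the partner subunit and triplets. Incubation was frozen, at −7 °C, and extended constructs were gel-excised, bound to streptavidin beads and amplified by RT-PCR, in one selection round done in triplicate. Fitness is the logarithm of a genotype's enrichment divided by that of the wild type, from inverse-variance-weighted replicate averages of Illumina-sequenced inputs and outputs. The base of the logarithm is 2, and genotypes needed ≥10 input reads and ≥1 read per output.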

Variant | polymerase ribozyme fitness (log ratio)
G45C C62A A83G A84U | -3.77
G45A C124U | 0.272
A46C C49A G63A | -0.445
A46C C86U C88A A121C U130C | 0.304
G45U A50U C53A C114U | -3.7
A46C C56G C72G U87A A100U C124A | -0.516
A46C A50U G71U | -1.86
G45U A46C U54C A90G | -1.94
G45U C70A | -2.74
G45C U112C | 1.16
G44U G71A | -2.39
G44U G48U | -2.5
G45A C97U | -2.83
G45A G51A C72U | -3.6
G45A A68G U112A | -4.04
G45A C88A U112G | -0.116
G44U U55A A83U | -1.34
G45U C94U A111U G127U | -3.61
G45U C70A G120U G122C | -2.72
G45U A50U G58C C114G | -5.4
G45A G113A C115U | -3.5
G45A U59C C86A | -3.96
G45A G48U C53G C72A | -0.719
G45U C49U G61A C115G | -2.62

Variant | polymerase ribozyme fitness (log ratio)
G45A C70G | -3.56
G45A C70A | -1.89
G45U C70A C85A A90U | -6.19
G45A C72U | -0.796
G45A C70A C85A U133C | -4.78
G45A C89G U116G | -4.12
G45U C123G | -0.391
G45U C123A | -0.805
G45U C49U G69U A121U G128C | -1.32
G45U C53A C72A C89G | -1.62
G44U G48A C114A | -2.35
G45A G51C | -5.06
G45U G47U G113A | -3.45
G44U G47U C72A U81G G117C | -6.49
G45C A46U C72G | -2.36
G45A U106C | -1.09
G45A C73U G113A C115U | -4.38
G45C A50C A121C | 0.0664
G45A C70G G110A | -6.64
A46C C53G G57C A66C C115U G122A | -6.53
G45U G110C | -4.47
G45A A83C A84U A100G G122U C123G | -5.96
G45U A111U C124U | -3.45
G44U U129A U131A | -3.84

Variant | polymerase ribozyme fitness (log ratio)
G45U G63C C104U | -0.927
G45U A75G U106C A119U A121C U130A | -0.0532
G45U C94A | -1.66
G45U C94U | -1.46
A46C C64A | -5.98
G44U C114U U132A | -2.69
G45A G48U C49A C53U C115G | -3.77
G45U C94U C101G | -3.3
G45U G93C C124G | 0.153
A46C C72A C123U | 0.713
A46C C79A G120A | -1.25
G45U G52U U54C G58C G60C | -0.884
G45U A50C C56A | -1.55
G45A C79G | -1.88
G45A C79U | -1.01
G45C C72U C85G | -3.66
G44U U55G G61C A119U | -1.87
G45C A68G U112A A118U | -4.16
G45C A74G A75U G77C C88U G135C | -1.28
G45A G48U C49A C53U G69C C115G | -4.6
A46C G48A G51A | -3.51
G45A G71U | -0.591
G45A G71C | -1.76
G44U G69U G117C A121C | -4.54

Variant | polymerase ribozyme fitness (log ratio)
G45C G48C G69A | -4.32
G45U C73U | -1.98
G45U C73G | -0.942
G45U C101U G113A | -2.93
A46C C53A A95C G128C | -3.03
G45A C85U | -1.45
G45A A121G | 1.78
G45U C56U | -1.13
G45U C56G | -2.16
G45U C62U U78G C101A G122A | -3.21
G44U U54C G113C | -3.08
G45A G128A | -2.84
A46C C115G | -2.59
G45U A50U | -2.62
G45C C101A U106C | -2.07
G45U C72G C114A | -2.66
G45U A74C A108G | -3.25
G44U G63A | -1.62
G44U G63C | -1.66
G45C A75G U96A G113C | -2.91
A46C C79U C101U G113U | -4.4
A46C C79G | -2.93
A46C C79A | -2.25
G45A C72A U92G | -2.71

Variant | polymerase ribozyme fitness (log ratio)
G45C C79A | -2.14
G44U G45A G122A | -3.13
G45U A68G | -4.43
G45A C102A G122A | -3.14
G45A G48U U54C C56G G69U U78G G93U C123G U130A | -2.55
G44U C89U A111U | -4.49
A46C C56U C72U U78A A90G C94U A111C | -0.367
G44U G48A C76U C85A C88A | -2.99
G45A G51A C79G C82U C86U U112A C115A | -7.28
G44U C88A U133G | -1.73
G44U U133G | -1.78
G45A G135U | -1.9
G45A G69U | 1.63
G45C U96A | -1.79
G45U G51U C62U U78C C80G | -4.39
A46C G63C G93A U116A G120U G135U | -4.76
A46C G61A C80A | -3.96
G45U A50G C73U U133A | -1.75
G45C G113C G135U | -4.16
G45C U55A A95U C114U | -3.85
G45A C64A | -6.18
G44U C73A C102A | -2.29
A46C C72U U78C G93U G122A U133G | -3.05
G45C G60C A84G | -2.3

Variant | polymerase ribozyme fitness (log ratio)
G45A U59C C62G | -5.53
G45C C104A G120A | -1.45
G44U G110A | -2.64
G45C C73A U81A C88G | -0.576
G45U G57C A118U | -0.526
G45A C98U U106A | -1.28
A46C A74U | -0.673
G45C C97A | -4.5
G44U U131A | -1.33
G44U C98A G120U | -6.27
G45U C56U C70U A75U | -2.3
G45C A84G | -1.49
G45U C99A G117C | -6.81
A46C C80A | -3.23
A46C C101G | -2.34
G44U G47U | -2.16
G45U U109A | -6.02
G44U G47C C53U C72G | -4.81
G45C G77A C82G C89G | -3.97
G45U G63A U131A | -1.33
G45U A50U G60U C79G | -2.53
G44U C82A C97A A121U | -3.17
G45U G47U C53A G57A G58U C86A | -2.17
G45U U92C | -2.47

Variant | polymerase ribozyme fitness (log ratio)
G45A G52U C79U A95C A121C | -0.812
G45U A95U | -1.69
G45A C88U | -0.289
G45C G61A U129A | -0.659
G45A G48U G93A | -3.09
G45U G93A | -1.79
A46C A100G | -4.28
G44U G63U C115G | -3.72
G45C C56A | -1.46
G45C C56U | -1.86
A46C C114U U130G | -3.02
G45A U67A C102A G120A | -6.86
A46C C53U U112A | 0.835
A46C G47U | -5.94
G45U A46C | -2.05
G45U A46U | -2.3
G45U G69A U78C U87G A111U | -6.45
G45U C72U | -1.63
G45C C56U U81G G113C | -4.36
G45U A50U G60A C62U | -1.75
G45U U55C G61U | -1.09
G45C C62G G93U | -5.04
G45A G69A U87A U125A | -3.37
